Test results from US20230144436A1, “MUSCLE TARGETING COMPLEXES AND USES THEREOF FOR TREATING MYOTONIC DYSTROPHY” (Dyne Therapeutics, Inc., priority 2020, published 2023).

B1: 10-H02 (antibody, V domains shown)
VH: EVQLVESGGDLVKPGGSLKLSCAASGFTFSDYGMHWVRQGPEKGLEWVAYINSGSSTIYYADTVKGRFTISRDNAKNTLFLQMTSLRSEDTAMYYCARPGDYDNYAMDYWGQGTSVTVSS
VL: DIVMTQSHKFLSTSVGDRVSITCKASQDVSVAVAWYQQKPGQSPKLLIYWAYTRHTGVPDRFTGSGSGTEYTLTISSVQAEDLALYYCQQHYNTPPWTFGGGTKLEIK
B2: 6-D03 (antibody, V domains shown)
VH: QVQLQQPGAELVKPGASVKMSCKASGYTFTRHWITWVKQRPGQGLEWIGDIYPGSGRTNYNEKFKSTATLTVDTSSSTAYMQLSSLTSEDSAVYYCARDGYLYINYFDYWGQGTTLTVSS
VL: ENVLTQSPAIMSASPGEKVTMTCSASSSVSFMHWFQQKSSTSPKLWIYDTSKLASGVPGRFSGSGSGSSYSLTISSMAAEDVATYYCFQGSGYPYTFGGGTKLEIK
B3: 9-D04 (antibody, V domains shown)
VH: QVQLQQSGTELARPGASVKLSCKASGFTFTDYGINWVKQRTGQGLEWIGEIYPSSGNSYYNEKFKAKATLTADKSSSTAYMELRSLTSEDSAVYFCARSTYYGSPIDYWGQGTTLTVSS
VL: DIVMTQSHKFMSTPVGDRVSITCKASQDVDTTVAWYQQKPGQSPKLLIYWASTRQIGVPDRFTGSGSGTDFTLTISNVQSEDLADYFCQQYSTYPLTFGGGTKLEIK
B4: 9-C04 (antibody, V domains shown)
VH: EVQLMESGGDLVKPGGSLKLSCAASGFTFSSYGLSWVRQTPDKRLEWVATITSGGSYTYYPDSVKGRFTISRDNARNTLYLQMFSLKSEDTAMYYCALWSLDYWGQGTTLTVSS
VL: QIVLTQSPAIMSASPGEKVTMTCSANSSLSYMHWYQQKPGTSPKRWIYDTSELASGVPARFSGSGSGTSYSLTISSMEAEDAATYYCHQRRSYPWTFGGGTKLEIK
B5: 8-K06 (antibody, V domains shown)
VH: QVHLQQPGAELVKPGASVKMSCKASGYTFTSYWITWVKQRPGQGLEWIGDIFPNSGRTNYDEKFKSKATLTVDTSSSTAYMQLSSLTSEDSAVYFCAREGNFGSLDYWGQGTTLTVSS
VL: QIVLTQSPAIMSASPGEKVTMTCSANSNLNYMNWYHQKSGTSPKRWIYDTSKLASGVPARFSASGSGTSYSLTISSMEAEDAATYYCQQWSRNPLTFGAGTRLELK
B6: 3-A04 (antibody, V domains shown)
VH: EVQLQQSGAELVRPGASVKLSCTASGFNIKDDYMYWVKQRPEQGLEWIGWIDPENGDTEYASKFQDKATVTADTSSNTAYLQLSSLTSEDTAVYYCTLWLRRGLDYWGQGTSVTVSS
VL: DIVMTQAAPSVPVTPGESVSISCRSSKSLLHSNGYTYLFWFLQRPGQSPQLLIYRMSNLASGVPDRFSGSGSGTAFTLRISRVEAEDVGVYYCMQHLEYPFTFGGGTKLEIK
B7: 4-C05 (antibody, V domains shown)
VH: QVQLQQSGAELMKPGASVKISCKATGYTFSNYWIEWVKQRPGHGLEWIGEILPGSGSTNYNENFKGKATFTADTSSNTAYMQLSSLTSEDSAVYYCARRGAYGNFHYWGQGTTLTVSS
VL: EIVLTQSPALMAASPGEKVTITCSVSSSISSSNLHWYQQKSETSPKPWIYGTSNLASGVPVRFSGSGSGTSYSLTISSMEAEDAATYYCQQWRSYPYTFGGGTKLEIK
B8: 8-D15: anti-TfR1 antibody, VH SEQ ID NO: 132, VL SEQ ID NO: 133 (antibody, V domains shown)
VH: QVQLKESGPGLVAPSQSLSITCTVSGFSLTSYAITWVRQSPGKGLEWLGLIWTGGGTNYNSALKSRLSISKDNSKSQVFLKMNSLQTDDTARYYCARIYDGYYRYFDVWGTGTTVTVSS
VL: RIVLTQTPKFLLVSAGDRVTMTCKASQSVSNDVAWYQQKPGQSPKLLIYYASNRYTGVPDRFTGSGYGTDFTFTISTVQAEDLAVYFCQQDYSSPWTFGGGTKLEIK
B9: 3-E05 (antibody, V domains shown)
VH: EIQMKQSGAELVKPGASVKISCKASGYSFTGYNMNWVKQSHGKSLEWIGNINPYYGSTGYNQKFKGKATLTVDKSSSTAYMQLNSLTSEDSAVYYCARGDYGYDEGTWFAYWGQGTLVTVSA
VL: DIVMSQSPSSLAVSAGEKVTMSCKSSQSLLNSRTRKNYLAWYQQKPEQSPKLLIYWASTRESGVPDRFTGSGSGTDFTLTISSVQAEDLAVYYCKQSYNLPFTFGSGTKLEIK
B10: 5-H12 (antibody, V domains shown)
VH: QIQLQQSGPELVRPGASVKISCKASGYSFTDYCINWVNQRPGQGLEWIGWIYPGSGNTRYSERFKGKATLTVDTSSNTAYMQLSSLTSEDSAVYFCAREDYYPYHGMDYWGQGTSVTVSS
VL: DIVLTQSPTSLAVSLGQRATISCRASESVDGYDNSFMHWYQQKPGQPPKLLIFRASNLESGIPARFSGSGSRTDFTLTINPVEAADVATYYCQQSSEDPWTFGGGTKLEIK
B11: 6-D3 (antibody, V domains shown)
VH: B2 VH
VL: B2 VL
B12: 9-D4 (antibody, V domains shown)
VH: B3 VH
VL: B3 VL
B13: 8-K6 (antibody, V domains shown)
VH: B5 VH
VL: B5 VL
B14: 3-A4 (antibody, V domains shown)
VH: B6 VH
VL: B6 VL
B15: 4-C5 (antibody, V domains shown)
VH: B7 VH
VL: B7 VL
B16: 3-E5 (antibody, V domains shown)
VH: B9 VH
VL: B9 VL

Biological target: hTfR1 (Homo sapiens, UniProt P02786)
Sequence (P02786 whole entry): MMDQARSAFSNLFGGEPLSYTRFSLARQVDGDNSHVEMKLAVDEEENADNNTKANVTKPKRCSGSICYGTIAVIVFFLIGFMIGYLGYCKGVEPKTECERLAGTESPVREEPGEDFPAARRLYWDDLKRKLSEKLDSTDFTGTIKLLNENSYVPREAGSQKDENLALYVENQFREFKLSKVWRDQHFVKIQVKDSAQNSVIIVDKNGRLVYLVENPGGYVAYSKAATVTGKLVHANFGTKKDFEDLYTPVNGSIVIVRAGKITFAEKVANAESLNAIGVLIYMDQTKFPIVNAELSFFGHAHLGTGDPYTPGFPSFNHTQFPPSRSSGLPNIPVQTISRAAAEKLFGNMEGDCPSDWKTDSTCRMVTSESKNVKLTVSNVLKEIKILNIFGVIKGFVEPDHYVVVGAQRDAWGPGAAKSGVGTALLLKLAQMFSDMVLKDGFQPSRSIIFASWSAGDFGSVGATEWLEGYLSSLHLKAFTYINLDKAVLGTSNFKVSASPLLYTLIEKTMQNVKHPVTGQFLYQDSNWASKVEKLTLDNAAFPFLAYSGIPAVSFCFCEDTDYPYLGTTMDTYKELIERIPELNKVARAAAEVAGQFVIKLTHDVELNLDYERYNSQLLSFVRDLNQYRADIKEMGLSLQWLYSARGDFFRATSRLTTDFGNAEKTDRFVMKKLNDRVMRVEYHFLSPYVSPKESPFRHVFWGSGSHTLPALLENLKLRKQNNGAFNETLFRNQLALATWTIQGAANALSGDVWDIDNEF
Test: Binding kinetics of anti-TfR1 antibodies on Carterra LSA, hTfR1
Settings: Carterra LSA at 25 C
Protocol: Selected anti-TfR1 antibodies were tested for their binding affinity to human TfR1 for measurement of Ka (association rate constant), Kd (dissociation rate constant), and KD (affinity). […] The binding experiment was performed on Carterra LSA at 25 C. An anti-mouse IgG and anti-human IgG antibody “lawn” was prepared on a HC30M chip by amine coupling. 59 IgGs (58 mouse mAbs and 1 human mAb) were captured on the chip. Dilution series of hTfR1, cyTfR1, and hTfR2 were injected to the chip for binding (starting from 1000 nM, 1:3 dilution, 8 concentrations).
Binding data were referenced by subtracting the responses from a buffer analyte injection and globally fitting to a 1:1 Langmuir binding model for estimate of Ka (association rate constant), Kd (dissociation rate constant), and KD (affinity) using the Carterra™ Kinetics software. 5-6 concentrations were used for curve fitting.

Compared with B1, B2 is 3.2-fold lower in “dissociation rate constant (koff)” value: 342 µM for the first, 107 µM for the second.

Going from B3 to B4, the “dissociation rate constant (koff)” value rises from 246 µM to 575 µM (2.3-fold).

Going from B5 to B6, the “dissociation rate constant (koff)” value rises from 10 µM to 195 µM (20-fold).

First: B7
Second: B8
The “dissociation rate constant (koff)” value of the first is 5.3-fold lower: 48.5 µM for the first, 257 µM for the second.

In the case of B9, the “dissociation rate constant (koff)” value is reported as 10 µM.

System: DMPK
Test: DMPK knockdown by anti-TfR1 antibody-oligonucleotide conjugates in NHP myotubes
Type: cell-based, non-human primate
Settings: conjugate with control DMPK-ASO, 72 hours, concentration not stated (0.5, 5, 50 nM tested)
Protocol: (§1) The purified complexes were then tested for cellular internalization and inhibition of the target gene, DMPK. Non-human primate (NHP) or DM1 (donated by DM1 patients) cells were grown in 96-well plates and differentiated into myotubes for 7 days. Cells were then treated with escalating concentrations (0.5 nM, 5 nM, 50 nM) of each complex for 72 hours. Cells were harvested, RNA was isolated, and reverse transcription was performed to generate cDNA. qPCR was performed using TaqMan kits specific for Ppib (control) and DMPK on the QuantStudio 7. The relative amounts of remaining DMPK transcript in treated vs non-treated cells was were calculated and the results are shown in Table 14 and FIG. 20.
as §1, with “of” for “of the target gene,”, “in” for “in Table 14 and”, “23.” for “20.”

First: B10
Second: B11
The “% knockdown of DMPK in NHP cells using Antibody-DMPK ASO conjugate” value (“% knockdown of DMPK in NHP cells” for short) of the first is higher: 88% for the first, −8% for the second.

First: B12
Second: B13
The “% knockdown of DMPK in NHP cells” value of the first is lower: 42% for the first, 73% for the second.

Going from B14 to B15, the “% knockdown of DMPK in NHP cells” value falls from 77% to −20%.

For B16, the “% knockdown of DMPK in NHP cells” value was 59%.

System: DMPK
Test: DMPK knockdown by anti-TfR1 antibody-oligonucleotide conjugates in DM1 patient myotubes
Type: cell-based, human
Settings: DM1 patient myotubes, conjugate with control DMPK-ASO, 72 hours; concentration not stated (0.5, 5, 50 nM tested)
Protocol: as §1
as §1, with “of” for “of the target gene,”, “in” for “in Table 14 and”, “23.” for “20.”

Going from B10 to B11, the “% knockdown of DMPK in cells from human DM1 patients using Antibody-DMPK ASO conjugate” value (from here on “% knockdown of DMPK in cells”) falls from 57% to −5%.

Compared with B12, B13 is lower in “% knockdown of DMPK in cells” value: 62% for the first, 34% for the second.

Compared with B14, B15 is lower in “% knockdown of DMPK in cells” value: 70% for the first, 35% for the second.

B16 was tested, and the “% knockdown of DMPK in cells” value was 71%.

Same assay, conditions: conjugates with control DMPK-ASO, in either cyno cells or human DM1 patient cells

In the case of B10, the “activity in delivering a payload (DMPK ASO) and achieving DMPK knockdown compared to the control antibody 15G11” value is reported as “superior activity”.
B12 was tested, and the “activity in delivering a payload (DMPK ASO) and achieving DMPK knockdown compared to the control antibody 15G11” value was “superior activity”.
B13 was tested, and the “activity in delivering a payload (DMPK ASO) and achieving DMPK knockdown compared to the control antibody 15G11” value was “superior activity”.
In the case of B14, the “activity in delivering a payload (DMPK ASO) and achieving DMPK knockdown compared to the control antibody 15G11” value is reported as “superior activity”.
For B16, the “activity in delivering a payload (DMPK ASO) and achieving DMPK knockdown compared to the control antibody 15G11” value was “superior activity”.
